Test results reported in PMC6126186.

Molecular target: exonuclease domain from the DNA repair protein WRN
Test: SEC-MALS; protein concentrated (10x and 20x) in a mixture of 50 mM phosphate and 1% sucrose; A280 and MALS across the elution peak

Sequence of exonuclease domain from the DNA repair protein WRN (Q14191 2-1432): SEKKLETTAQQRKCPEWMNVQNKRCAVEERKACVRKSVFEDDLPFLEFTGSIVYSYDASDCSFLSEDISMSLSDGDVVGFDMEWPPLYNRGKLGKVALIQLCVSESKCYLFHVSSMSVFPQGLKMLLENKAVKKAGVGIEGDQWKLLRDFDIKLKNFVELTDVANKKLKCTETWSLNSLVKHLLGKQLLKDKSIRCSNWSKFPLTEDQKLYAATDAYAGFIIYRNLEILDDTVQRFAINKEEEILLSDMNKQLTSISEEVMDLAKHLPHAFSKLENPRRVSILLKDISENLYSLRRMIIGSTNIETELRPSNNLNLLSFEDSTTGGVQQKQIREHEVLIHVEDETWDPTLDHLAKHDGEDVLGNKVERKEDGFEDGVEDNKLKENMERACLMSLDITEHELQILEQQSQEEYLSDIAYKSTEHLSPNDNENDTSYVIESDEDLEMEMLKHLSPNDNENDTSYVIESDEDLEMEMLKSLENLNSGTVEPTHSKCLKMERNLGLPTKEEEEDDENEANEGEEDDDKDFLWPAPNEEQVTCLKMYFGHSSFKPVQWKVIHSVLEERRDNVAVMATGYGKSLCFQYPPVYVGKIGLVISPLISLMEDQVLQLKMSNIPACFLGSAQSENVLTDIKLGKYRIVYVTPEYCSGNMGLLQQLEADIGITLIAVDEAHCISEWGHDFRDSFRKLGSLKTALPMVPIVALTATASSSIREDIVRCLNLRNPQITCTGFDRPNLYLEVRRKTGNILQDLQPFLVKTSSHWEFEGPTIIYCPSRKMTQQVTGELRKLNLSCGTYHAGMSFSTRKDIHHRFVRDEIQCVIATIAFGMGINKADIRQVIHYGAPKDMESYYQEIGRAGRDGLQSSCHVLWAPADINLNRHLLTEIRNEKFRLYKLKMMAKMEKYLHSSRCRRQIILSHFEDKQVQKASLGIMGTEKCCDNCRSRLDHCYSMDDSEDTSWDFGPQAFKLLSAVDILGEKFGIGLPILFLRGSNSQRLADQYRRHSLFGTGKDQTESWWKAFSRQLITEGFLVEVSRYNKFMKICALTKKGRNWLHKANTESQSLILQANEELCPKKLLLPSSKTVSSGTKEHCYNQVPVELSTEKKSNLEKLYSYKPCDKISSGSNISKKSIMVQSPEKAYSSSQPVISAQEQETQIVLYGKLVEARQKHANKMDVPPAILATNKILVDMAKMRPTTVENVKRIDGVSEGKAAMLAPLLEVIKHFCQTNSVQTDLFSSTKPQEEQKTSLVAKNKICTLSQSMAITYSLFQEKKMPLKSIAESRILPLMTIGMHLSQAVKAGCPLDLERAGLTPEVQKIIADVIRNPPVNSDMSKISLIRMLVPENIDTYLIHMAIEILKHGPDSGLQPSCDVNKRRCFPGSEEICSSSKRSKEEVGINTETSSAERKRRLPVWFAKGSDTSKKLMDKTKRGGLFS

## exonuclease domain from the DNA repair protein WRN (domain or fragment)
  stoichiometry N: 2
